Assay [1] deals with human FGFR4 polypeptide expressed in transfected rat L6 myoblasts (human, UniProt P22455 22-802). The assay can be described thus: cell-based or functional assay.
The target in assay [2] is human FGFR1c polypeptide expressed in transfected rat L6 myoblasts (human, UniProt P11362 22-822). Briefly: cell-based or functional assay.
In assay [3] the target is T1, FGFR4-Fc (recombinant polypeptide comprising a human FGFR4 extracellular domain fused to a human IgG1 Fc … (human, UniProt P22455 22-369)).
T1 construct: extracellular domain; Bought reagent; also called FGFR4 fused to Fc fragment; catalog no; 685-FR-050, R&D Systems; not shown: human IgG1 Fc fragment
T1 sequence (looked up): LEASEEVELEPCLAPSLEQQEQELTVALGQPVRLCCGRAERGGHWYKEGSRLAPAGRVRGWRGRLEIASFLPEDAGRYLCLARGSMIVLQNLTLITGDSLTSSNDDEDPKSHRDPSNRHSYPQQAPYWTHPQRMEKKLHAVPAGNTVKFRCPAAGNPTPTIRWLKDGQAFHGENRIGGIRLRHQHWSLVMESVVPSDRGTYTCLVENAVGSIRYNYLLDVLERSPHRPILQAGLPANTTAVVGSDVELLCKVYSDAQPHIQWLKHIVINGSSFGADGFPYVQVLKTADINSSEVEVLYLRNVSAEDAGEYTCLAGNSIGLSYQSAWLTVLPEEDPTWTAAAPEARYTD
Briefly: ELISA, FGFR-Fc captured by anti-human IgG-Fc antibody, 2 µg/mL heparin, no Klotho-beta. On the procedure: Monoclonal antibodies specific for human IgG-Fc fragment (Jackson ImmunoResearch, West Grove, Pa., USA) were immobilized in the wells of Maxisorp™ flat-bottom 96-well plates (Nunc, Thermo Fisher Scientific, Rochester, N.Y.) by overnight incubation with 100 μl per well of 2 μg/ml antibody solution. Each well was then incubated with either 1 μg/ml of FGFR4—Fc (a recombinant polypeptide comprising a human FGFR4 extracellular domain fused to a human IgG₁ Fc fragment; catalog no. 685-FR-050, R&D Systems, Inc., Minneapolis, Minn.) or 1 μg/ml FGFR1c-Fc (a recombinant polypeptide comprising a human FGFR1c extracellular domain fused to a human IgG₁ Fc fragment; catalog no. 658-FR-050, R&D Systems).
The surface-immobilized FGFR4-Fc or FGFR1c-Fc polypeptides were incubated for 1 hr with native human FGF19-Flag polypeptide with a C-terminal epitope tag (See FGF19-Flag in Table 10, SEQ ID NO:237) at concentrations of 1 μg/mL, 0.4 μg/mL, 0.16 μg/mL, 0.064 μg/mL, 0.0256 μg/mL, 0.004096 μg/mL or 0.0016384 μg/mL, each with 2 μg/mL heparin, to allow binding of the FGF19 polypeptide to the receptor domain. […]
For orientation: An ELISA detects its analyte on a solid surface through an enzyme-linked reagent.

This note sets out measurements from patent publication US20110104152A1 (Genentech, published 2011).

Sequence of human FGFR1c polypeptide expressed in transfected rat L6 myoblasts (P11362 22-822): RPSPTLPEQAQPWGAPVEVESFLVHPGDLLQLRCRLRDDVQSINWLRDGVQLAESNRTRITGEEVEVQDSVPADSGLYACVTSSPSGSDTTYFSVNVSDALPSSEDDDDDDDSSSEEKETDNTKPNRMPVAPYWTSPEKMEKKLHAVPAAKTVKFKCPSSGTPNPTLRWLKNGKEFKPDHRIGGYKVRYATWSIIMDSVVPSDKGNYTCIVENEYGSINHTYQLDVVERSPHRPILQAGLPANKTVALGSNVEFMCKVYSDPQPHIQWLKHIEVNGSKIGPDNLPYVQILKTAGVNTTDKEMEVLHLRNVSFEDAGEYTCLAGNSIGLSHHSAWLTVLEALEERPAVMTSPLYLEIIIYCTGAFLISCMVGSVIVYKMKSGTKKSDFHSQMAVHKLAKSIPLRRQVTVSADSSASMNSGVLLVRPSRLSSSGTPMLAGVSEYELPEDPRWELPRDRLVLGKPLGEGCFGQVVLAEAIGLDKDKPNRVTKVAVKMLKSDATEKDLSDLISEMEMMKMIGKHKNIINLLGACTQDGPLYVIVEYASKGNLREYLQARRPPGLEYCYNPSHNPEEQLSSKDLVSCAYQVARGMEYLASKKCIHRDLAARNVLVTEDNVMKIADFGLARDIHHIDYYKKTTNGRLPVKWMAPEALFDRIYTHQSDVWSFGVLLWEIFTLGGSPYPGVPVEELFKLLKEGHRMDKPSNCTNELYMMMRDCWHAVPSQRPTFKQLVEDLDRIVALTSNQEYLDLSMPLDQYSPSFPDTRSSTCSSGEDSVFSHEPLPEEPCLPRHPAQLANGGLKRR

B1: chimeric FGF19 polypeptide cFGF21/19-2/Flag (ligand)
chain: HPIPDSSPLLQFGGQVRQRYLYTSGPHGLSSCFLRIRADGVVDCARGQSAHSLLEIKAVALRTVAIKGVHSVRYLCMGADGKMQGLLQYSEEDCAFEEEIRPDGYNVYRSEKHRLPVSLSSAKQRQLYKNRGFLPLSHFLPMLPMVPEEPEDLRGHLESDMFSSPLETDSMDPFGLVTGLEAVRSPSFEKDYKDDDDK
notes: also called chimeric FGF19-Flag polypeptide; FGF19v
On to B1, for which the “EC50 of dose-dependent activation of luciferase (GAL4-Elk1 reporter), L6 cells with FGFR4 and KLB” value in assay [1] was determined as 0.269 µg/mL. In addition, the “EC50 of dose-dependent activation of luciferase (GAL4-Elk1 reporter), L6 cells with KLB and FGFR1c” value in assay [2] was found to be 0.0227 µg/mL. Moreover, the binding result in assay [3] is recorded as “no binding (tested: 1 µg/mL (highest concentration tested))”.
